In US20250277020A1 (Boehringer Ingelheim, published 2025):
Numbering of substitutions follows the chain as printed. Values belong to the binder of their own block, whether it stands above or below them.

Biological target: T1, Full-length human CTGF (human, UniProt P29279 27-349)
T1 construct: Corresponds to NCBI NP_001892.1 with the signal peptide omitted; purchased from R&D Systems; also called hCTGF full length; full length CTGF
T1 sequence: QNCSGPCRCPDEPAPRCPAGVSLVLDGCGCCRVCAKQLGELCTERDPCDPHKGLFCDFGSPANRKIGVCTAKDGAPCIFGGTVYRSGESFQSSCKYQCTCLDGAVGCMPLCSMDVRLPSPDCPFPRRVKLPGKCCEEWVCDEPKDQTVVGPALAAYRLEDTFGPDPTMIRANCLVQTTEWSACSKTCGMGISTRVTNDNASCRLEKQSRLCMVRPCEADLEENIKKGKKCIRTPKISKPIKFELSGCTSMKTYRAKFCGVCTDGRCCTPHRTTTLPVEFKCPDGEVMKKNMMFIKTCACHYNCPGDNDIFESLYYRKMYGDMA
Test: SPR, full length CTGF

B2: A66 (antibody, human IgG1, kappa, L234A L235A, V domains shown)
VH: EVQLVESGGGLVQPGGSLRLSCAASGFTFSDYYMAWVRQAPGKGLEWVANINYYGSRTDLLESLKSRFTISRDNAKNSVYLQMNSLRAEDTAVYYCARDTSRGSYFDVWGAGTTVTVSS
VL: VVMTQTPLSLPVSLGDQASISCRSSQSIVHYNTNTYLEWYLQKPGQSPQLLIYKVSNRFSGVPDRFSGSGSGTDFTLKISRVEAEDLGVYYCFQGSHFPLTFGQGTKLEIKR
Kd: 0.25 nM

B5: A59 (antibody, human IgG1, kappa, L234A L235A, V domains shown)
VH: B2 VH with Y54E, E62A
VL: B2 VL with T33A
Kd: 0.27 nM

B8: A79 (antibody, human IgG1, kappa, L234A L235A, V domains shown)
VH: B2 VH with Y54D
VL: B2 VL with T33G, N34K
Kd: 0.16 nM

B9: A65 (antibody, human IgG1, kappa, L234A L235A, V domains shown)
VH: B2 VH with Y54E
VL: B2 VL
Kd: 0.27 nM

B11: A76 (antibody, human IgG1, kappa, L234A L235A, V domains shown)
VH: B2 VH with E62A
VL: B2 VL with T33G, N34K
Kd: 0.18 nM

B16: A68 (antibody, human IgG1, kappa, L234A L235A, V domains shown)
VH: B2 VH with E62A
VL: B2 VL
Kd: 0.15 nM

B17: A72 (antibody, human IgG1, kappa, L234A L235A)
light: VVMTQTPLSLPVSLGDQASISCRSSQSIVHYNTNTYLEWYLQKPGQSPQLLIYKVSNRFSGVPDRFSGSGSGTDFTLKISRVEAEDLGVYYCFQGSHFPLTFGQGTKLEIKRTVAAPSVFIFPPSDEQLKSGTASVVCLLNNFYPREAKVQWKVDNALQSGNSQESVTEQDSKDSTYSLSSTLTLSKADYEKHKVYACEVTHQGLSSPVTKSFNRGEC
heavy: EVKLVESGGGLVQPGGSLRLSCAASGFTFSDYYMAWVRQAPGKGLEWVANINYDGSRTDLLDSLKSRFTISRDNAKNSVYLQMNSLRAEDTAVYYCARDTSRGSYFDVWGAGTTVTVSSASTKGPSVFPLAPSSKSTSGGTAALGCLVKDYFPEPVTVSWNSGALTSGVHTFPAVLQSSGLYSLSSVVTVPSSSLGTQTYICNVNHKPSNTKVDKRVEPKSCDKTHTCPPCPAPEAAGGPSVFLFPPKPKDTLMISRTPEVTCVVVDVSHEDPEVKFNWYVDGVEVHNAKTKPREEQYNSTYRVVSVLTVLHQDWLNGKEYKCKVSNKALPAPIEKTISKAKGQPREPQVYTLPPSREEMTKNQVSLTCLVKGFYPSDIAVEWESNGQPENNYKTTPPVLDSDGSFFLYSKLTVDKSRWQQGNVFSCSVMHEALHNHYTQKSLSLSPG
Kd: 0.27 nM

B23: A67 (antibody, human IgG1, kappa, L234A L235A, V domains shown)
VH: B2 VH with Y54E, E62A
VL: B2 VL
Kd: 0.24 nM

B24: A75 (antibody, human IgG1, kappa, L234A L235A, V domains shown)
VH: B2 VH with Y54E, E62A
VL: B2 VL with T33G, N34K
Kd: 0.17 nM

B26: A69 (antibody, human IgG1, kappa, L234A L235A)
light: B17 light
heavy: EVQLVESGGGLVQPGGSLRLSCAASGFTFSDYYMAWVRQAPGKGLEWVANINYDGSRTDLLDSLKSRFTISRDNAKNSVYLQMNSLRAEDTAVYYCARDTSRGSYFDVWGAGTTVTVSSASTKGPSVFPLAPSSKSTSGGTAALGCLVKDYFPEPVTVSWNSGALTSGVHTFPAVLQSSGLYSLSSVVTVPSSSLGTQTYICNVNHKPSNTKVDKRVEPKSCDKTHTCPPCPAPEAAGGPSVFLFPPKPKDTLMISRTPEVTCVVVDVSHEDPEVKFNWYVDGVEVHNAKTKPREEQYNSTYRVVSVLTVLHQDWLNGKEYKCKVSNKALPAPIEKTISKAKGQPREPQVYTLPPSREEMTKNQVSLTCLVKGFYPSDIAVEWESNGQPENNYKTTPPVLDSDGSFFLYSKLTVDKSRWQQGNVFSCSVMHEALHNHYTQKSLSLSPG
Kd: 0.28 nM

B27: A77 (antibody, human IgG1, kappa, L234A L235A)
light: B17 light with T33G, N34K
heavy: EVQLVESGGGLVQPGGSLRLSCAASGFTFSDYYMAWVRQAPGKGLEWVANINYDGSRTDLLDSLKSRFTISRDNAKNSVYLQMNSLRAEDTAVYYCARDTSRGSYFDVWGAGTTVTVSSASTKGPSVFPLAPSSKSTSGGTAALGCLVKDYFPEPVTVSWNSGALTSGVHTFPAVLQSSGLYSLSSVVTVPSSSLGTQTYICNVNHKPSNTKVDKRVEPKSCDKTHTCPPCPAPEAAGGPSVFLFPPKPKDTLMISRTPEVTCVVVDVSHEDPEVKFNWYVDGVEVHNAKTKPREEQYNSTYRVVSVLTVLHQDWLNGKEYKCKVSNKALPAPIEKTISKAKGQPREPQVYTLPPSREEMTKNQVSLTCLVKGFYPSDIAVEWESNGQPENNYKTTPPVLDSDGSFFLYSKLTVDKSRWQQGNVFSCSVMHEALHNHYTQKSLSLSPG
Kd: 0.23 nM

B28: A81 (antibody, human IgG1, kappa, L234A L235A, V domains shown)
VH: B2 VH with Y54E
VL: B2 VL with T33E, N34K
Kd: 0.29 nM

Results, then the binder that gave them:

Kd: 0.31 nM
B1: A54 (antibody, human IgG1, kappa, L234A L235A, V domains shown)
VH: B2 VH with Y54E, E62D
VL: B2 VL with T33E

Kd: 0.31 nM
B3: A56 (antibody, human IgG1, kappa, L234A L235A)
light: B17 light with T33E
heavy: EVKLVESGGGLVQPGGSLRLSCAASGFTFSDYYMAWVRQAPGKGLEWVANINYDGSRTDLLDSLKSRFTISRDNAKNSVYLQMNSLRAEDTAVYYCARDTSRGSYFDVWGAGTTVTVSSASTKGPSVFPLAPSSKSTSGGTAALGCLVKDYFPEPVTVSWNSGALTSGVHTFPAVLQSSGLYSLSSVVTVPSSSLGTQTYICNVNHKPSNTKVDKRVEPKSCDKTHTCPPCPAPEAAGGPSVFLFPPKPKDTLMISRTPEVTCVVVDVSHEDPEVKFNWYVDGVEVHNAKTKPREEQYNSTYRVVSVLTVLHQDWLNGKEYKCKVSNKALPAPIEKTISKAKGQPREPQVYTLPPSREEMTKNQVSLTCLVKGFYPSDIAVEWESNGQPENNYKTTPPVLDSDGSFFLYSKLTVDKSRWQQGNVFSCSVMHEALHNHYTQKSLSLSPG

Kd: 0.35 nM
B4: A57 (antibody, human IgG1, kappa, L234A L235A, V domains shown)
VH: B2 VH with Y54E
VL: B2 VL with T33A

Kd: 0.28 nM
B6: A71 (antibody, human IgG1, kappa, L234A L235A, V domains shown)
VH: B2 VH with Y54D
VL: B2 VL

Kd: 0.35 nM
B7: A61 (antibody, human IgG1, kappa, L234A L235A)
light: B17 light with T33A
heavy: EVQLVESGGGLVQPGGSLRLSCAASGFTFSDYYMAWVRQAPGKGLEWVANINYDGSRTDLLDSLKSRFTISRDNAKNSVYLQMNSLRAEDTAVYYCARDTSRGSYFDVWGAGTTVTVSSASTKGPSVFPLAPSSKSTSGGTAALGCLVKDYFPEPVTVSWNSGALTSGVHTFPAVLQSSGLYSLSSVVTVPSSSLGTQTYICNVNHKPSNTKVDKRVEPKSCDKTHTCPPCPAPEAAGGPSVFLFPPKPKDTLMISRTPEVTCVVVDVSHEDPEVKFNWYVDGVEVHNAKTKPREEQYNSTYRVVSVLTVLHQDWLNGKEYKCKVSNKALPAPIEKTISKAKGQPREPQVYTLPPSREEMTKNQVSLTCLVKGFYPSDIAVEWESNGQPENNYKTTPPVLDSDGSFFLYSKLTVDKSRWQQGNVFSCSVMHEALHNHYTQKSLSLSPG

Kd: 0.23 nM
B10: A78 (antibody, human IgG1, kappa, L234A L235A, V domains shown)
VH: B2 VH with Y54E, E62D
VL: B2 VL with T33G, N34K

Kd: 0.35 nM
B12: A55 (antibody, human IgG1, kappa, L234A L235A, V domains shown)
VH: B2 VH with Y54D
VL: B2 VL with T33E

Kd: 0.34 nM
B13: A63 (antibody, human IgG1, kappa, L234A L235A, V domains shown)
VH: B2 VH with Y54D
VL: B2 VL with T33A

Kd: 0.3 nM
B14: A60 (antibody, human IgG1, kappa, L234A L235A, V domains shown)
VH: B2 VH with E62A
VL: B2 VL with T33A

Kd: 0.3 nM
B15: A58 (antibody, human IgG1, kappa, L234A L235A, V domains shown)
VH: B2 VH
VL: B2 VL with T33A

Kd: 0.35 nM
B18: A62 (antibody, human IgG1, kappa, L234A L235A, V domains shown)
VH: B2 VH with Y54E, E62D
VL: B2 VL with T33A

Kd: 0.27 nM
B19: A70 (antibody, human IgG1, kappa, L234A L235A, V domains shown)
VH: B2 VH with Y54E, E62D
VL: B2 VL

Kd: 0.58 nM
B20: A73 (antibody, human IgG1, kappa, L234A L235A, V domains shown)
VH: B2 VH with Y54E
VL: B2 VL with T33G, N34K

Kd: 0.2 nM
B21: A74 (antibody, human IgG1, kappa, L234A L235A, V domains shown)
VH: B2 VH
VL: B2 VL with T33G, N34K

Kd: 0.36 nM
B22: A82 (antibody, human IgG1, kappa, L234A L235A, V domains shown)
VH: B2 VH
VL: B2 VL with T33E, N34K

Kd: 0.25 nM
B25: A80 (antibody, human IgG1, kappa, L234A L235A)
light: B17 light with T33G, N34K
heavy: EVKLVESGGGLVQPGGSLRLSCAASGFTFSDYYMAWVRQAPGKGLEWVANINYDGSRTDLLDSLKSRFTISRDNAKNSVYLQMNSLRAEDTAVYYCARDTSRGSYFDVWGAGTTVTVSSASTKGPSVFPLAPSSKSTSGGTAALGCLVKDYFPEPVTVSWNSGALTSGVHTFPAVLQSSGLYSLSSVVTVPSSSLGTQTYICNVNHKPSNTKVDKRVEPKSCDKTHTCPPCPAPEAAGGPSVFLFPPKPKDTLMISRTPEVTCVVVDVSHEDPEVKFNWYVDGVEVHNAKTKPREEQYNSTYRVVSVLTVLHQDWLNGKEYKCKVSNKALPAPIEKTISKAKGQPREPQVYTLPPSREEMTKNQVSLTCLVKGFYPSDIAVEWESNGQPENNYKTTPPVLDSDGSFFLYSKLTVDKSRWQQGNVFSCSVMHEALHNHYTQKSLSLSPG

Kd: 0.32 nM
B29: A64 (antibody, human IgG1, kappa, L234A L235A)
light: B17 light with T33A
heavy: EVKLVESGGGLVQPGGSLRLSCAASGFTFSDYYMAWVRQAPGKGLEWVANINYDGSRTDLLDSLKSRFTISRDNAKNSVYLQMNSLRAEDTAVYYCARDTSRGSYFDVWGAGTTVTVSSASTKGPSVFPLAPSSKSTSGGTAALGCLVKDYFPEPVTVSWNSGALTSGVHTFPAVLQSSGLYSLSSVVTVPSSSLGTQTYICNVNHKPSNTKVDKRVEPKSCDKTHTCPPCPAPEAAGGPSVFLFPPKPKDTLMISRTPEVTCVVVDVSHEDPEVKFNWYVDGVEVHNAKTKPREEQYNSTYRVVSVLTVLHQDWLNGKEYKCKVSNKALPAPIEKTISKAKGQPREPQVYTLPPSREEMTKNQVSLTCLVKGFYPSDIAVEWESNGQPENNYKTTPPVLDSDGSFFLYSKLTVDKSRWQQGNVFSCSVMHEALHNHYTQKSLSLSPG
